# Data reported in patent publication US20250076311A1 (Chugai, published 2025).
# T1: cynomolgus monkey FcγRIIa3 extracellular domain with C-terminal His-tag (cynomolgus monkey)
# T1 construct: also called cyno FcgRIIa3; cynoFcγRIIa3; not shown: His-tag added to the C-terminus
# T1 chain: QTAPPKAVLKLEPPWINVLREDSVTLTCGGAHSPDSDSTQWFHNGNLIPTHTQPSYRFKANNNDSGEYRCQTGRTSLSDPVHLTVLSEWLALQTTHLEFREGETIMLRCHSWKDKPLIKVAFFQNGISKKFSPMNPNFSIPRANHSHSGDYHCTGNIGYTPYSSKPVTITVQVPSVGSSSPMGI
# T2: cynomolgus monkey FcγRIIb extracellular domain with C-terminal His-tag (cynomolgus monkey)
# T2 construct: also called cyno FcgRIIb; cynoFcγRIIb; not shown: His-tag added to the C-terminus
# T2 chain: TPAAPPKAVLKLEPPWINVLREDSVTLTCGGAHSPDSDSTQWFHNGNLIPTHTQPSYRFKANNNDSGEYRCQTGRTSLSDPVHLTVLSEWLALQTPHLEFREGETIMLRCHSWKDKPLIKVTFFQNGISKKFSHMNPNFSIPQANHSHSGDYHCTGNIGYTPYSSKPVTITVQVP
# T3: human FcγRIIaH extracellular domain with C-terminal His-tag (human, UniProt P12318 34-217)
# T3 construct: also called human FcgRIIaH; FcγRIIa type H; not shown: His-tag added to the C-terminus
# T3 sequence: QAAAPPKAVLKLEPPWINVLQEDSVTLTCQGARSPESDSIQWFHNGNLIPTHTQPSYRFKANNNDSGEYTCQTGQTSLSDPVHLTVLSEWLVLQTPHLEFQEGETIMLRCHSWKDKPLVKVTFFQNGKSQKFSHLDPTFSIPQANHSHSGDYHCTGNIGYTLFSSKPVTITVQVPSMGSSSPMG
# Columns and labels:
# [1] = target: T1, cynomolgus monkey FcγRIIa3 …; test: SPR (BIACORE); KD of SG1 / KD of variant
# [2] = target: T2, cynomolgus monkey FcγRIIb extracellular …; test: SPR (BIACORE); KD of SG1 / KD of variant
# [3] = target: T4, cynomolgus monkey FcγRIIIaS extracellular domain with C-terminal His-tag (cynomolgus monkey, UniProt A3RFZ7 21-206 (rhesus entry)); test: SPR (BIACORE); KD of SG1 / KD of variant
# T4 construct: also called cyno FcgRIIIaS; cynoFcγRIIIaS; not shown: His-tag added to the C-terminus
# [4] = target: T3, human FcγRIIaH extracellular domain …; test: SPR (BIACORE); KD of SG1 / KD of variant
# [5] = target: T4, cynomolgus monkey FcγRIIIaS …; test: SPR (BIACORE), antibody captured, FcgR analyte
# T4 sequence (A3RFZ7 21-206): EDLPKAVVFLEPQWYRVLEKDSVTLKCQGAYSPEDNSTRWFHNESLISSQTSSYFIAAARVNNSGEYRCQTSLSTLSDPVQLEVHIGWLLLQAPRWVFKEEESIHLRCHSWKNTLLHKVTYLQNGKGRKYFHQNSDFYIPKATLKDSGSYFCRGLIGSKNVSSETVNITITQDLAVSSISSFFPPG
Binder,KD fold (SG1 = 1) [1] [fold],KD fold (SG1 = 1) [2] [fold],KD fold (SG1 = 1) [3] [fold],KD fold (SG1 = 1) [4] [fold],Kd [5] [µM]
"M103205H795-MY050/M103202L889-SK1 (antibody, human IgG1, kappa, name in EU numbering, Fc variant of MS1032LO06-SG1; positions in EU numbering) heavy: QVTLKESGPVLVKPTETLTLTCTVSGIDLSHDDISWVRQAPGKGLEWVGIISYAGSTYYASWAKGRLTISKDTSKNQVVLTMTNMDPVDTATYYCARGVPAYSHGGDLWGQGTLVTVSSASTKGPSVFPLAPSSKSTSGGTAALGCLVKDYFPEPVTVSWNSGALTSGVHTFPAVLQSSGLYSLSSVVTVPSSSLGTQTYICNVNHKPSNTKVDKKVEPKSCDKTHTCPPCPAPELLNGPSVFLFPPKPKDTLMISRTPEVTCVVVDVAEEDPEVKFNWYVDGVEVHNAKTKPREEQYNSTYRVVSVLTVLHQDWLNGKEYKCKVSNKALPAPIEKTISKAKGQPREPQVYTLPPSREEMTKNQVSLTCLVKGFYPSDIAVEWESNGQPENNYKTTPPVLDSDGSFFLYSKLTVDKSRWQQGNVFSCSVMHEALHNHYTQKSLSLSP light: DIVMTQSPATLSLSPGERATLSCTSSQSVYHANWLSWFQQKPGQPPKLLIYWASTLAYGVPSRFSGSGSGTDFTLTISSLQPEDAATYYCAGGYGGGRYAFGQGTKVEIKRTVAAPSVFIFPPSDEQLKSGTASVVCLLNNFYPREAKVQWKVDNALQSGNSQESVTEQDSKDSTYSLSSTLTLSKADYEKHKVYACEVTHQGLSSPVTKSFNRGEC",0.5,1.3,0.21,0.3,1.7
"M103205H795-MY147/M103202L889-SK1 (antibody, human IgG1, kappa, name in EU numbering, Fc variant of MS1032LO06-SG1; positions in EU numbering) heavy: QVTLKESGPVLVKPTETLTLTCTVSGIDLSHDDISWVRQAPGKGLEWVGIISYAGSTYYASWAKGRLTISKDTSKNQVVLTMTNMDPVDTATYYCARGVPAYSHGGDLWGQGTLVTVSSASTKGPSVFPLAPSSKSTSGGTAALGCLVKDYFPEPVTVSWNSGALTSGVHTFPAVLQSSGLYSLSSVVTVPSSSLGTQTYICNVNHKPSNTKVDKKVEPKSCDKTHTCPPCPAPELWNGPSVFLFPPKPKDTLMISRTPEVTCVVVDVSEEDPEVKFNWYVDGVEVHNAKTKPREEQYNSTYRVVSVLTVLHQDWLNGKEYKCKVSNKALPAPIEKTISKAKGQPREPQVYTLPPSREEMTKNQVSLTCLVKGFYPSDIAVEWESNGQPENNYKTTPMVLDSDGSFFLYSKLTVDKSRWQQGNVFSCSVMHEALHNHYTQKSLSLSP light: DIVMTQSPATLSLSPGERATLSCTSSQSVYHANWLSWFQQKPGQPPKLLIYWASTLAYGVPSRFSGSGSGTDFTLTISSLQPEDAATYYCAGGYGGGRYAFGQGTKVEIKRTVAAPSVFIFPPSDEQLKSGTASVVCLLNNFYPREAKVQWKVDNALQSGNSQESVTEQDSKDSTYSLSSTLTLSKADYEKHKVYACEVTHQGLSSPVTKSFNRGEC",–,1.9,0.07,–,5.5
